Results as given in publication PMC12776482, “Structural and Functional Analysis of GGPPS Inhibition as a Therapeutic Mechanism for Acute Myeloid Leukemia (AML)” (Research Square, 2025).

Molecular target: the molecule itself
Test: mass photometry; purified wild-type recombinant human GGPPS in solution; conditions not shown (Fig. S2)

B1: wild-type recombinant human geranylgeranyl pyrophosphate synthase (GGPPS) (enzyme)
chain: MEKTQETVQRILLEPYKYLLQLPGKQVRTKLSQAFNHWLKVPEDKLQIIIEVTEMLHNASLLIDDIEDNSKLRRGFPVAHSIYGIPSVINSANYVYFLGLEKVLTLDHPDAVKLFTRQLLELHQGQGLDIYWRDNYTCPTEEEYKAMVLQKTGGLFGLAVGLMQLFSDYKEDLKPLLNTLGLFFQIRDDYANLHSKEYSENKSFCEDLTEGKFSFPTIHAIWSRPESTQVQNILRQRTENIDIKKYCVHYLEDVGSFEYTRNTLKELEAKAYKQIDARGGNPELVALVKHLSKMFKEENE
notes: human geranylgeranyl pyrophosphate synthase (GGPPS, GGPS1), wild type; His6 tag removed with TEV protease; also called GGPP synthase; hGGPPS; source: E. coli (BL21 DE3), purified (Ni-NTA, TEV cleavage, second Ni-NTA, Superdex 200); not shown: His6, N-terminal, cleaved
- stoichiometry N: 6
